Here are results for one molecule from patent US20190256560A1 (INSTITUT PASTEUR, published 2019).

This test deals with T1, Recombinant soluble Zika virus E ectodomain (ZIKV sE), strain H/PF/2013 (Zika virus, UniProt A0A024B7W1 291-694).
T1 construct: also called ZIKV sE dimer; recombinant ZIKV E protein
In words: BLI (Octet), IgG on anti-human IgG Fc sensors, ZIKV sE dimer in solution. (In general: Biolayer interferometry detects binding as a change in optical thickness at a sensor tip.)

T1 sequence (A0A024B7W1 291-694): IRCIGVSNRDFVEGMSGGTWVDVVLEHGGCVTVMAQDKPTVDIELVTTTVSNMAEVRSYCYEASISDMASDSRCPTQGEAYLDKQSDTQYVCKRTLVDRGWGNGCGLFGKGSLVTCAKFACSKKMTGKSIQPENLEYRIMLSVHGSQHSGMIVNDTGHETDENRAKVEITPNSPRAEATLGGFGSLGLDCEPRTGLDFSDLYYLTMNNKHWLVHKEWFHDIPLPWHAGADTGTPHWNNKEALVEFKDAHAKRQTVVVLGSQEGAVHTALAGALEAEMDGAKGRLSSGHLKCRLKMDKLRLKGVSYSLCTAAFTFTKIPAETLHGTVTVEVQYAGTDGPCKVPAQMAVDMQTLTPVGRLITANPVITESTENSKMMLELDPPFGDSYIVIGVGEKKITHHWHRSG

B1: EDE2 A11, human recombinant IgG (antibody, V domains shown)
VH: EVQLVESGGGLVRPGGSLRLSCAASGFSYSNHWMHWVRQAPGKGLVWVSRINSDGSTRNYADFVKGRFTISRDNAENTLYLEMNSLTADDTAVYYCVRDGVRFYYDSTGYYPDSFFKYGMDVWGQGTTVTV
VL: QSVLTQPVSVSGSPGQSITISCTGTSSNADTYNLVSWYQQRPGKAPKLMIYEGTKRPSGVSNRFSASKSATAASLTISGLQPEDEADYYCCSYATSRTLVFGGGTKLTVV
notes: Human IgG; also called IgG EDE2 A11
For B1, the binding result was “binds”.
